Measured values: the DeepSol protein solubility set

Experiment: soluble on expression in E. coli; label from the status in PepcDB or PDB records

Sequence	soluble on expression in E. coli
MVDPVGFAEAWKAQFPDSEPPRMELRSVGDIEQELERCKASIRRLEQEVNQERFRMIYLQTLLAKEKKSYDRQRWGFRRAAQAPDGASEPRASASRPQPAPADGADPPPAEEPEARPDGEGSPGKARPGTARRPGAAASGERDDRGPPASVAALRSNFERIRKGHGQPGADAEKPFYVNVEFHHERGLVKVNDKEVSDRISSLGSQAMQMERKKSQHGAGSSVGDASRPPYRGRSSESSCGVDGDYEDAELNPRFLKDNLIDANGGSRPPWPPLEYQPYQSIYVGGMMEGEGKGPLLRSQSTSEQEKRLTWPRRSYSPRSFEDCGGGYTPDCSSNENLTSSEEDFSSGQSSRVSPSPTTYRMFRDKSRSPSQNSQQSFDSSSPPTPQCHKRHRHCPVVVSEATIVGVRKTGQIWPNDGEGAFHGDADGSFGTPPGYGCAADRAEEQRRHQDGLPYIDDSPSSSPHLSSKGRGSRDALVSGALESTKASELDLEKGLEMRKWVLSGILASEETYLSHLEALLLPMKPLKAAATTSQPVLTSQQIETIFFKVPELYEIHKEFYDGLFPRVQQWSHQQRVGDLFQKLASQLGVYRAFVDNYGVAMEMAEKCCQANAQFAEISENLRARSNKDAKDPTTKNSLETLLYKPVDRVTRSTLVLHDLLKHTPASHPDHPLLQDALRISQNFLSSINEEITPRRQSMTVKKGEYRQLLKDSFMVELVEGARKLRHVFLFTDLLLCTKLKKQSGGKTQQYDCKWYIPLTDLSFQMVDELEAVPNIPLVPDEELDALKIKISQIKSDIQREKRANKGSKATERLKKKLSEQESLLLLMSPSMAFRVHSRNGKSYTFLISSDYERAEWRENIREQQKKCFRSFSLTSVELQMLTNSCVKLQTVHSIPLTINKEDDESPGLYGFLNVIVHSATGFKQSSNLYCTLEVDSFGYFVNKAKTRVYRDTAEPNWNEEFEIELEGSQTLRILCYEKCYNKTKIPKEDGESTDRLMGKGQVQLDPQALQDRDWQRTVIAMNGIEVKLSVKFNSREFSLKRMPSRKQTGVFGVKIAVVTKRERSKVPYIVRQCVEEIERRGMEEVGIYRVSGVATDIQALKAAFDVNNKDVSVMMSEMDVNAIAGTLKLYFRELPEPLFTDEFYPNFAEGIALSDPVAKESCMLNLLLSLPEANLLTFLFLLDHLKRVAEKEAVNKMSLHNLATVFGPTLLRPSEKESKLPANPSQPITMTDSWSLEVMSQVQVLLYFLQLEAIPAPDSKRQSILFSTEV	soluble
MKAPVRVAVTGAAGQIGYSLLFRIAAGEMLGKDQPVILQLLEIPQAMKALEGVVMELEDCAFPLLAGLEATDDPKVAFKDADYALLVGAAPRKAGMERRDLLQVNGKIFTEQGRALAEVAKKDVKVLVVGNPANTNALIAYKNAPGLNPRNFTAMTRLDHNRAKAQLAKKTGTGVDRIRRMTVWGNHSSTMFPDLFHAEVDGRPALELVDMEWYEKVFIPTVAQRGAAIIQARGASSAASAANAAIEHIRDWALGTPEGDWVSMAVPSQGEYGIPEGIVYSFPVTAKDGAYRVVEGLEINEFARKRMEITAQELLDEMEQVKALGLI	soluble
MSLSIFSHFQERFEATRQEEYSLQEYLDLCKQDKTAYASAAERLLMAIGEPELLDTSVDSRLSRIFSNKVIRRYPAFADFHGMEECIDQIVAFFRHAAQGLEEKKQILYLLGPVGGGKSSLAEKLKQLMEKVPFYAIKGSPVFESPLGLFNPDEDGAILEEDYGIPRRYLRSIMSPWATKRLNEFGGDISQFRVVKLYPSILNQIAIAKTEPGDENNQDISALVGKVDIRKLEEYPQNDADAYSYSGALCRANQGLMEFVEMFKAPIKVLHPLLTATQEGNYNSTEGLGALPYSGIILAHSNESEWHSFRNNKNNEAFIDRIYIVKVPYCLRVADEIKIYDKLLVNSSLAHAHCAPDTLKMLSQFSVLSRLKEPENSNIYSKMRVYDGENLKDTDPKAKSIQEYRDSAGVDEGMAGLSTRFAFKILSKVFNFDPHEVAANPVHLLYVLEQQIEQEQFQPETRERYLRFIKEYLAPRYVEFIGKEIQTAYLESYSEYGQNIFDRYVLYADFWIQDQEYRDPETGEILNRAALNEELEKIEKPAGISNEGHHHHHH	not soluble
MRKMKSLYLAIQQHESRRWSPVAKVTKNGGVYRLVYTKGAWEVPGFSGFARMEDLYQEYRSAEIFPILKNRTLPRSRPEYQNYILWLGLSPEEHDELDELARSGGIRATDQIELIPAPERKEDGSFEAFFFVRGISYIPGTADIDLKIGDRLFVMKDFQNEQDSAALLLRTGDPVSVVGYAPRYYSHDLSRLAELCPPQDLLVTVERLNNNAPAAYKVLCKVVAPWPAGFDFFGSHVFDEVPKAPVSLEHHHHHH	not soluble
MGSDKIHHHHHHMILYFSGTGNSRYVARKIAQELNDELISLNQLIKDEKTDELISADKPFIFVCPTYAWRLPIVVTDFIKETKFLGSNRVYFVMTCGGDTAKSINYIQKLCKYKEWQLKGMAEIKMPENYIALFSTTDKETSKQMIKEADKQIYRIISDIRNENEFETITPSGLGGTIKSGIINTVFYKTIISAKGFHYTDKCIGCGKCVELCPLNNINLKNKKPVWKNNCTHCMACICGCPTEAIEYKNKTQNRERYYLE	not soluble
MGSDKIHHHHHHMREKIKLELERIEKENDVKILFAVESGSRVWGFPSKDSDYDVRFVYMHPVEWYLSIHDKRDVIEYPISDDLDISGWDIKKALQLFAKSNPALLEWIRSPIFYSKNSNFPEQLQQMSEKNFDPKATIYHYLHMASKNYREFLQGENVKLKKYFYVLRPILACKWLEEKTTLPPVEFDRLITELSIERSVLDEIEQLLIKKKAGTELDVGLKIEVLNQFLEEQIHYYQQYVKGIEKGSGIDIESLNTLFRDMLFAVYEKEHK	not soluble
MPLTQTQRLINTYGASLKNGTISNEELIILLDPNTFTKSEGYVDPNAPVSDSNHSKMDAIKDFVLTIGPTLDSEILHQLTSRMIELSPPGDRNTFMRGSSLEKAFLAFEMAHYPTKAEEHFNSTRVRTEFPGENDIDNLKAVILNPIIAFFQSPPGTDEKLEKLIKLCTDYKEHLKPSLTDDANNLVNKKHAIVTNMLAALTDSTAPNNATKIKNMEQILTEENKATLKDRRDSFSGARFLESILHILSLGIYSKLTKGTFKFWKSHGEALSDNIEEVSKQQPGMK	not soluble
MSLMTSKTSLALLCDFYEFTMSQGYFKNNKKDQICYFDIFFRKIPDSGSFAIFAGLEDILDFVENLSFDAEDIEFLRKQGIFDTEFLDFLANFKFKGEIYAMREGEVIFPNEPLLCIKATTIEAQLLETFLLLSLNHQSLIATKTNRIVRAAKDSKILEFGSRRAQGSEAALKGARAAFIGGCIGSACTLAGKIYNIPINGTMAHSWVQMFENELEAFKAYVKIYPKNPVFLIDTYDCLNSGLKNAIKVFKEFGIQEGGVRIDSGNLLELSLKIRQELDQAGLQKCKIIVSNALDEWSIKKLKEQNAPIDIFGVGERLITASSDPIFSCVYKLAALEDQGIKPKIKISENNEKSTLPHFKKLFRVYDKNTQKILFDELYVFDENPNQDENLERKELLELVYKEKRLLKKSSLNTIQDYTKEQISKLDESFLDLDRFVKFEVKLSPKLQNITEDLLKTRFEGHHHHHH	soluble
MFNKAIVIGGSMAGKFAAKALSTSFKEVIIIEASERWDGKSSRKRVPQSNHPHVLLKGGENAIEELFPNITDELIEAGSIVNNFTRDLKWHQFGLWKQPFIGEVHMIQQSRPLLEWNIQKRIHQISNITIKYETLVKGLLVDEKLNKVCGVKVKYLETDAQEEVHADLVVDASGFGSKSIEWLREYEIEVQEEKVRINLFYATKMFKLKENEELDCCNMLMSPSFPDNPYGVLIQTIEDNRYFVTFSGYANEKAPQTDDEFYDFAENLSISNVTDFLNKAVAISDIKTYKIPYQVRRRFDLTTNMPEGLLVVGDAHCRFDPVFGQGVSVAAMEARQLQLLLQGRKQLDKTFTQQFYKKAATIIETPWEMTTTEISRHPQLKRELTIKQKFQLWYTKQIYQLSATDSDVYIRLVKVMNLIRSPFHLFHPKVLLAVLLKRKKLEHHHHHH	not soluble
MGSDKIHHHHHHLRASSSIRVGAERAHLAIGAASKRMADLEASIGVQLFERHARGVALTAAGEALERHTQRILNDMDRMTAEMSDYAAGVVGVVRLWANTSSVTQFLPTDIAAFSVVHPDIRIELEEQDSEQVALAVVDGAADFGIMADRMPTLGLQAMLYRKDHLFLVVPDGHPLTQRESVSFVDALEFDFVSLARNTSLAKRLQAATAFSGGQIKLRIQVRSFDAMCLMVAAGPGIAILPDAAVGPHLRSMDLCRIPLSENWTRRELFICARDLNALPRPASLLVNHLIGATPDAVAVR	not soluble
DNYFRIHVKKLPEENKDAQGLWTWDDVEKPSENWPNGALSFKDAKKDDYGYYLDVKLKGEQAKKISFLINNTAGKNLTGDKSVEKLVPKMNEAWLDQDYKVFSYEPQPAGTVRVNYYRTDGNYDKKSLWYWGDVKNPSSAQWPDGTDFTATGKYGRYIDIPLNEAAREFGFLLLDESKGDVKIRKENYKFTDLKNHSQIFLKDDDESIYTNPYYVHD	soluble
MHVNGKVALVTGAAQGIGRAFAEALLLKGAKVALVDWNLEAGVQCKAALDEQFEPQKTLFIQCDVADQQQLRDTFRKVVDHFGRLDILVNNAGVNNEKNWEKTLQINLVSVISGTYLGLDYMSKQNGGEGGIIINMSSLAGLMPVAQQPVYCASKHGIVGFTRSAALAANLMNSGVRLNAICPGFVNTAILESIEKEENMGQYIEYKDHIKDMIKYYGILDPPLIANGLITLIEDDALNGAIMKITTSKGIHFQDYDTTPFQAKTQ	not soluble
MGSDKIHHHHHHMVNNMTDLTAQDAAWSTRDHLDDPVIGELRNRFGPDAFTVQATRTGIPVVWVKREQLLEVGDFLKKLPKPYVMLFDLHGMDERLRTHRDGLPAADFSVFYHLISIERNRDIMLKVALSENDLRVPTFTKLFPNANWYERETWEMFGIDIEGHPHLTRIMMPQTWEGHPLRKDYPARATEFDPFELTKAKQDLEMEALTFKPEDWGMKRGTDNEDFMFLNLGPNHPSAHGAFRIILQLDGEEIVDCVPDIGYHHRGAEKMGERQSWHSYIPYTDRIEYLGGCVNEMPYVLAVEKLAGITVPDRVNVIRVMLSELFRINSHLLYISTFIQDVGAMTPVFFAFTDRQKIYDLVEAITGFRMHPAWFRIGGVAHDLPRGWDRLLREFLEWMPKRLDSYEKAALRNTILKGRSQGVAAYGAKEALEWGTTGAGLRATGIDFDVRKWRPYSGYENFDFEVPVGGGVSDCYTRVMLKVEELRQSLRILQQCLDNMPEGPFKADHPLTTPPPKERTLQHIETLITHFLQVSWGPVMPAQESFQMVEATKGINSYYLTSDGSTMSYRTRVRTPSFAHLQQIPSAIRGSLVSDLIVYLGSIDFVMSDVDR	not soluble
MGSDKIHHHHHHMVKTARRRGDDAVRGPGGVLVLGAASWNRMIHVETLPQGASATIFDARETQGAGSTGVGKAMGLAALGYQPTLHCALGRDDHGAQVIAACAGRGISLIVDEHDAATPHHLNIMDQLGGRYSLFLSNGAPDPPINEPRIAEQIAAADTIFLSLCASSKKILHLLEGARAEILLDLHDYDGANPWYEDFIACADVIQLSDVAVADPGAVARRLLSGRAHQVVVTKAGKGAEIVTADTSIDVPPCPADMVDSNGAGDAFSVALWHAQRTGQSGLDAGGFAAAAAACAIESADLFPVNVSAADIAGRVRAHPQDHSTGTASR	not soluble
